Reference: patent US20110256132A1 (published 2011)
Positions count from the first letter of the chain named. Numbers in names are those of the source. Where two headings read alike, the source gives them in different places. Blank lines part the entries; values can stand above or below the binder they belong to.

What was measured:
[1] = target: T1, mature myostatin (recombinant, dimeric) (mouse polyprotein used for in-house …, UniProt O08689 268-376); experiment: myostatin binding ELISA, CHOK1 supernatants
T1 construct: also called GDF-8; recombinant myostatin
T1 sequence: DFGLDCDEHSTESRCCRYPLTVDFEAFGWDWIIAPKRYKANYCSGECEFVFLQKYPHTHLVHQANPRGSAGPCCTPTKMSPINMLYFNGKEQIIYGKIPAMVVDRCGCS
Experimental: The myostatin binding ELISA was carried out approximately according to this protocol. A 96-well ELISA plate was coated at 4° C. overnight with 10 ng/well recombinant myostatin. This plate was then washed 3-times in wash buffer (PBS, 0.1% Tween-20). The wells were blocked for 1 hour at room temperature with block solution (PBS, 0.1% Tween-20+1% bovine serum albumin [BSA]), before washing 3-times in wash buffer. Antibodies were then titrated out to a suitable concentration range (approximately 100 to 0.001 μg/ml), added to the plate and incubated for 1 hour at room temperature. The plate was then washed 3-times in wash buffer. An anti-mouse IgG HRP-conjugated antibody (P0260 by Dako, this reagent was used according to the manufacturer's instructions) was used to detect binding of mouse antibodies, such as 10B3. […] The plate was then washed 3-times in wash buffer and developed with an OPD substrate (from Sigma, used according to the manufacturer's instructions) and read at 490 nm on a plate reader.
The plasmids for each antibody were transfected into CHOK1 cells in duplicate and in two separate experiments. Antibodies produced in the CHOK1 cell supernatant were analysed for activity in the myostatin binding ELISA. […]

[2] = target: T1, mature myostatin (recombinant, dimeric); experiment: cell-based or functional assay
[3] = target: T1, mature myostatin (recombinant, dimeric); experiment: BIAcore, high density myostatin surface, antibody analyte, 1:1 model (poor fits)
Experimental: (§1) Purified H0L0, H1L2 and H2L2 bound recombinant myostatin by BIAcore™ Recombinant myostatin was immobilised at three different densities (low, medium and high, to give R-max values of approximately 35, 120 and 350 RU's respectively) onto a BIAcore™ chip. Antibodies were passed over at 256, 64, 16, 4 and 1 nM. 0 nM antibody was used for double referencing and data was fitted to the 1:1 model.

[4] = target: T1, mature myostatin (recombinant, dimeric); experiment: BIAcore, low density myostatin surface, antibody analyte, 1:1 model
Experimental: as §1

[5] = target: T1, mature myostatin (recombinant, dimeric); experiment: BIAcore, low density myostatin surface, methods as in 4.3
[6] = target: T1, mature myostatin (recombinant, dimeric); experiment: BIAcore, medium density myostatin surface, antibody analyte, 1:1 model (poor fits)
Experimental: as §1

[7] = target: T1, mature myostatin (recombinant, dimeric); experiment: cell-based or functional assay; remark: listed apart in the source
[8] = target: T1, mature myostatin (recombinant, dimeric); experiment: myostatin binding ELISA with purified antibody, 10 ng/well recombinant myostatin coated, anti-human kappa HRP, A490 (Examples 4.1, 4.2); the text says the CHOK1 material was hard to quantify
Experimental: (§2) The myostatin binding ELISA was carried out approximately according to this protocol. A 96-well ELISA plate was coated at 4° C. overnight with 10 ng/well recombinant myostatin. This plate was then washed 3-times in wash buffer (PBS, 0.1% Tween-20). The wells were blocked for 1 hour at room temperature with block solution (PBS, 0.1% Tween-20+1% bovine serum albumin [BSA]), before washing 3-times in wash buffer. Antibodies were then titrated out to a suitable concentration range (approximately 100 to 0.001 μg/ml), added to the plate and incubated for 1 hour at room temperature. The plate was then washed 3-times in wash buffer. An anti-mouse IgG HRP-conjugated antibody (P0260 by Dako, this reagent was used according to the manufacturer's instructions) was used to detect binding of mouse antibodies, such as 10B3. An anti-human kappa light chain HRP-conjugated antibody (A7164 by Sigma Aldridge, this reagent was used according to the manufacturer's instructions) was used to detect binding of humanized or chimeric antibodies, such as 10B3 chimera or H0L0. The plate was then washed 3-times in wash buffer and developed with an OPD substrate (from Sigma, used according to the manufacturer's instructions) and read at 490 nm on a plate reader.

[9] = target: T1, mature myostatin (recombinant, dimeric); experiment: myostatin binding ELISA with purified antibody, 10 ng/well recombinant myostatin coated, anti-human kappa HRP, A490 (Examples 4.1, 4.2)
Experimental: as §2

[10] = target: T1, mature myostatin (recombinant, dimeric); experiment: cell-based or functional assay; remark: listed apart in the source
[11] = target: T1, mature myostatin (recombinant, dimeric); experiment: ActRIIb receptor binding assay (Example 2.5), mean IC50
Experimental: Recombinant soluble ActRIIb (R&D Systems 339-RBB) was coated in wells of an ELISA plate at 1 μg/ml in carbonate buffer overnight at 4° C. Plates were blocked (see Block solution above at 2.3) and washed following standard ELISA protocols. In parallel, 2 nM biotinylated myostatin (in-house, as described in 1.1, biotinylated material) was pre-incubated with an antibody dilution series consisting of 10B3, 10B3C, and a negative control (IgG1 isotype control) for 2 hours at 37° C. The biotinylated myostatin:antibody reactions were then added to the ActRIIb coated plate for 1 hour at 37° C. Standard wash procedures were followed prior to addition of 1:1000 diluted streptavidin-HRP conjugate (Dako P0397) and a further 37° C. incubation for 1 hour. Plates were again washed and assayed at absorbance 490 nm following OPD substrate (Sigma) and acid stop solution treatment Inhibition curves and IC50 values for the inhibition of myostatin activity are shown in FIG. 5 and Table 8 respectively.
H2L2 C91S_G55S F100G_Y, the developability enhanced molecule with the highest apparent potency in the A204 assay was Fc-disabled (by making the following substitutions, using EU numbering system: Leu 235 Ala; and Gly 237 Ala) as exemplified in SEQ ID NO: 99.

[12] = target: T1, mature myostatin (recombinant, dimeric); experiment: cell-based or functional assay; remark: listed apart in the source
[13] = target: T1, mature myostatin (recombinant, dimeric); experiment: myostatin binding ELISA, 10 ng/well recombinant myostatin coated, CHOK1 supernatants, anti-human kappa HRP, A490 (Examples 5.1, 4.2)
[14] = target: T1, mature myostatin (recombinant, dimeric); experiment: myostatin capture ELISA: plate coated with polyclonal anti-myostatin AF788, myostatin 1 µg/ml captured, purified antibody titrated, anti-human kappa HRP, A490 (Example 6.7)
Experimental: A 96-well ELISA plate was coated at 4° C. overnight with 2.5 μg/ml polyclonal Antibody to Myostatin (R&D Systems AF788). This plate was then washed 3-times in wash buffer (PBS, 0.1% Tween-20) and blocked for 1 hour at room temperature with block solution (PBS, 0.1% Tween-20+1% bovine serum albumin [BSA]). Then, myostatin was added at 1 μg/ml in block buffer during 1 hour followed by 3-times in wash buffer. Antibodies were then titrated out to a suitable concentration range (approximately 10 to 0.01 μg/ml), added to the plate and incubated for 1 hour at room temperature. The plate was then washed 3-times in wash buffer. An anti-human kappa light chain HRP-conjugated antibody (Sigma A7164, used according to the manufacturer's instructions) was used to detect binding of humanized or chimeric antibodies, such as 10B3 chimera (HcLc) or H0L0. The plate was then washed 3-times in wash buffer and developed with an OPD substrate (according to the manufacturer's instructions) and read at 490 nm on a plate reader.
The experiment is illustrated in FIG. 21 where H2L2-C91S, H0L0, HcLc (10B3 chimera) and a negative control monoclonal antibody were used as control antibodies. All eleven CDRH3 variant antibodies bound to recombinant myostatin in this ELISA. […]

[15] = target: T1, mature myostatin (recombinant, dimeric); experiment: myostatin binding ELISA after 48 h at 37 C in PBS (Examples 5.2, 4.2), A490
[16] = target: T1, mature myostatin (recombinant, dimeric); experiment: myostatin binding ELISA after 48 h at 37 C in 1% ammonium bicarbonate pH 9.0 (Examples 5.2, 4.2), A490

B1: 10B3 chimera N54D (HCLC-N54D) (antibody, human IgG1, kappa, V domains shown)
VH: EVQLQQSGPELVKPGASVKISCKASGYSFTGYFMHWVKQSHGNILDWIGNIYPYDGVSNYNQRFKAKATLTVDKSSSTAYMELRSLTSEDSAVYYCARRYYYGTGPADWYFDVWGTGTLVTVSS
VL: DIKMTQSPSSMYASLRERVTITCKASQDINSYLSWFQQKPGKSPKTLIYRANRLVDGVPSRFSGSGSGQDYSLTISSLEYEDMGIYYCLQCDEFPLTFGAGTKLELKR
binding result [1]: no binding

B2: 10B3 chimera N54D & C91S (HCLC-N54D-C91S) (antibody, human IgG1, kappa, V domains shown)
VH: B1 VH
VL: B1 VL with C91S
binding result [1]: no binding

B3: H0L0 (antibody, human IgG1, kappa)
heavy: not shown
light: DIQMTQSPSSLSASVGDRVTITCKASQDINSYLSWFQQKPGKAPKSLIYRANRLVDGVPSKFSGSGSGTDFTLTISSLQPEDFATYYCLQCDEFPLTFGQGTKLEIKRTVAAPSVFIFPPSDEQLKSGTASVVCLLNNFYPREAKVQWKVDNALQSGNSQESVTEQDSKDSTYSLSSTLTLSKADYEKHKVYACEVTHQGLSSPVTKSFNRGEC
notes: Humanised, human IgG1 wild type/kappa
Mean IC50, A204 in vitro activity assay [2]: 10.1 nM
Kd [3]: 2.31 nM
koff [3]: 0.000338 s⁻¹
kon [3]: 146000 M⁻¹ s⁻¹
Kd [4]: 8.26 nM
koff [4]: 0.00662 s⁻¹
kon [4]: 801000 M⁻¹ s⁻¹
Kd [5]: 22.7 nM
Kd [6]: 3.61 nM
koff [6]: 0.00093 s⁻¹
kon [6]: 258000 M⁻¹ s⁻¹
Mean IC50, A204 in vitro activity assay [7]: 10.2 nM
EC50 (read off the curve) [8]: ~0.3 µg/mL
EC50 (read off the curve) [9]: ~0.1 µg/mL

B5: H2L2 C91S_G55S F100G_Y (antibody)
chain 1: not shown
chain 2: B3 light with F71Y, C91S
IC50 [11]: 0.786 nM
Mean IC50, A204 in vitro activity assay [12]: 4.42 nM

B7: H2L2-C91S_F100G_N (antibody, human IgG1, kappa, V domains shown)
VH: QVQLVQSGAEVKKPGASVKVSCKASGYSFTGYFMHWVRQAPGQGLEWMGNIYPYNGVSNYNQRFKARVTMTTDTSTSTAYMELRSLRSDDTAVYYCARRYYYGTGPADWYNDVWGQGTLVTVSS
VL: DIQMTQSPSSLSASVGDRVTITCKASQDINSYLSWFQQKPGKAPKSLIYRANRLVDGVPSKFSGSGSGTDYTLTISSLQPEDFATYYCLQSDEFPLTFGQGTKLEIKR
binding result [14]: binds

B8: H2L2-C91S_W100E_F (antibody, human IgG1, kappa, V domains shown)
VH: B7 VH with W109F, N111F
VL: B7 VL
binding result [14]: binds

B11: H2L2 C91S_G55S F100G_Y-Fc disabled (antibody, human IgG1, kappa)
heavy: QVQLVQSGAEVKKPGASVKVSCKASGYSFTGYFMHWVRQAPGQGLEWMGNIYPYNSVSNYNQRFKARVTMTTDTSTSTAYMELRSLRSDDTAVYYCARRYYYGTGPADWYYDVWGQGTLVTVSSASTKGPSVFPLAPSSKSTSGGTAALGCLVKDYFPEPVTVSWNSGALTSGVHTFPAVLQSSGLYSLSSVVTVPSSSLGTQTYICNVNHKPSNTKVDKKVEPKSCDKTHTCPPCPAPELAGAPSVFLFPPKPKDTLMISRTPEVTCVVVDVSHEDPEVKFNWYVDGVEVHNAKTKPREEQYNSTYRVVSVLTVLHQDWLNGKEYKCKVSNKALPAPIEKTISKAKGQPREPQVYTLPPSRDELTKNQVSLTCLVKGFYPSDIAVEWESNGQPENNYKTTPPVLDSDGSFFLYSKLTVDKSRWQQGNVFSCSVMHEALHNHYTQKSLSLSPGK
light: B3 light with F71Y, C91S
IC50 [11]: 0.518 nM

The remaining lines, values ahead:

Mean IC50, A204 in vitro activity assay [10]: 1.24 nM
B4: H2L2-C91S_F100G_Y Fc Disabled (antibody, human IgG1, kappa)
heavy: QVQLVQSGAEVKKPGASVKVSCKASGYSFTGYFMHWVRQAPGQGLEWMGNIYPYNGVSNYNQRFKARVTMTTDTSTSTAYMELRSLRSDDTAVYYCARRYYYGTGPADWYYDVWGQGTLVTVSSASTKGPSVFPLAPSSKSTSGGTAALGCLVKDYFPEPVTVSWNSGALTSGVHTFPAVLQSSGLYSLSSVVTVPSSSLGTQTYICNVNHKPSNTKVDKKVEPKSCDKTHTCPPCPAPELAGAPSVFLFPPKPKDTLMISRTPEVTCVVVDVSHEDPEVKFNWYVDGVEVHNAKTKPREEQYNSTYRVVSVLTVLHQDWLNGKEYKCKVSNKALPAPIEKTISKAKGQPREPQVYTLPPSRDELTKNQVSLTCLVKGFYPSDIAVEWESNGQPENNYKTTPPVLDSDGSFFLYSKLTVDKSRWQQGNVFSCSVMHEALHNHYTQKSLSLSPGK
light: B3 light with F71Y, C91S

binding result [13]: no binding (tested: about 33 nM)
B6: H2L2 N54D (H2L2-N54D) (antibody, human IgG1, kappa, V domains shown)
VH: B7 VH with N55D, N111F
VL: B7 VL with S91C

binding result [13]: no binding
B9: H2L2 N54D & C91S (H2L2-N54D-C91S) (antibody, human IgG1, kappa, V domains shown)
VH: B7 VH with N55D, N111F
VL: B7 VL

Mean IC50, A204 in vitro activity assay [2]: 10.1 nM
Kd [3]: 1.47 nM
koff [3]: 0.000216 s⁻¹
kon [3]: 147000 M⁻¹ s⁻¹
Kd [4]: 8.37 nM
koff [4]: 0.00268 s⁻¹
kon [4]: 321000 M⁻¹ s⁻¹
Kd [5]: 12 nM
EC50 (read off the curve) [15]: ~0.7 nM
Kd [6]: 3 nM
koff [6]: 0.000737 s⁻¹
kon [6]: 246000 M⁻¹ s⁻¹
EC50 (read off the curve) [16]: ~0.6 nM
Mean IC50, A204 in vitro activity assay [7]: 8.6 nM
EC50 (read off the curve) [8]: ~0.1 µg/mL
EC50 (read off the curve) [9]: ~0.09 µg/mL
B10: H2L2 (antibody, human IgG1, kappa, V domains shown)
VH: B7 VH with N111F
VL: B7 VL with S91C
notes: as for B3
